In assay [1] the test system is CD8+ T cells. The assay can be described thus: peptide:MHC multimer/tetramer staining of enriched T cells (flow cytometry). It counts as cell-based, human. The note with it: Table 4; enriched T cells after enrichment cycles. As for the experimental part: (§1) Enrichment of epitope-specific CD8 T cells was performed according to the protocol described by Butler et al., Clin Cancer Res.;13(6):1857-1867 (2007), doi:10.1158/1078-0432, but included the following amendments. CD8+ T lymphocytes were collected from PBMCs by magnetic-activated cell sorting (MACS) according to the CD8 isolation kit (Miltenyi Biotec). CD8+ T cells with >95% purity were subsequently cultured in T cell medium supplemented with IL-2 (36 IU/mL; but no gentamycin) for 1 day, after which expansion cycles started. K562ABC cells (kindly provided by prof. Bruce Levine, University of Pennsylvania, PA) were loaded with 10 μg/ml ROPN1 and/or ROPN1B peptide and incubated for 5 h at RT in serum-free medium, after which cells were washed and fixed with 0,1% paraformaldehyde. After washing, K562ABC cells were suspended at 0.1×10^6/mL and co-cultured with T cells in a 1:20 ratio. IL-2 (36 IU/mL) and IL-15 ([…]) were added at days 1 and 3 days after start of co-culture, and after 6 days, T cells were counted, suspended at 2×10^6/mL and rested for 1 day, after which the next cycle commenced (this schedule continued up to 4 or 5 cycles). Following 4 and 5 cycles, T cells were stained with pMHC multimers (HLA*0201/MLN, Immudex, Copenhagen, Denmark). pMHC-PE were pre-incubated at RT for 10 min followed by incubation with 7AAD, anti-CD3-FITC and anti-CD8-APC for 20 min. Cells were fixed with 1% paraformaldehyde and TCR expression was measured with flow cytometry and analyzed using FlowJoX software. FIG. 4A schematically depicts the procedure to enrich epitope-specific T cells, and obtainthe corresponding TCR genes.
Following enrichment, T cells were tested for ROPN1 and/or ROPN1B epitope-specific IFNY production. To this end, T2 cells (1×10^6/mL) were loaded with peptide (20 ng/mL) for 30 min, after which T cells (1×10^5) were cultured in a 1:1 ratio with T2 cells in a round bottom 96-wells plate for 18 h. Supernatant was collected and IFN-γ production was measured with an Enzyme-linked immunosorbent assay (ELISA, BioLegend) according to the manufacturer's protocol (FIG. 9A). T2 cells loaded with an irrelevant peptide were included as a negative control. T cell IFNg production was considered epitope-specific in case levels exceeded 200 pg/ml, and levels were minimally twice as high as for irrelevant peptide (see for full listing of criteria, FIG. 8). T cells that fulfilled these criteria were stained with peptide:MHC (pMHC) tetramers to determine the frequency of epitope-specific T cells. Empty Loadable HLA Tetramers (5 μL, Tetramer shop, Kongens Lyngby, Denmark) were incubated with 0.5 μL peptide (200 μM) for 30 min on ice. Complexes of pMHC were centrifuged (3300 g, 5 min) and incubated with 0.1×10^6 T cells for 15 min at 37° C. in the dark. Next, an antibody cocktail containing CD3-FITC (1:30, BD) and CD8-APC (1:300, eBiosciences) was added and incubated for an additional 30 min at 4° C. in the dark. Finally, T cells were washed twice and fixed with 1% paraformaldehyde (PFA), after which events were acquired with FACSCelesta (BD) and analyzed using FlowJoX software.
A general note: In flow cytometry, cells or beads pass a laser one at a time.

Assay [2] deals with ROPN1 or ROPN1B over-expressing MDA-MB231 tumor cells. The experiment in a line: IFNg production of TCR T cells co-cultured with ROPN1 or ROPN1B over-expressing tumor cells (endogenously processed epitope). The class given is cell-based, human. The note with it: Table 4; responding TCRs / TCRs tested, T cells transduced with TCR specific for the epitope. As for the experimental part:
In a first series of in vitro tests, TCR-transduced T cells (6×10^4/well in a 96-well plate) were co-cultured with ROPN1 or ROPN1B over-expressing MDA-MB231 tumor cells (2×10^4/well) in a total volume of 200 μl of T cell medium for 24 h at 37° C. The ROPN1 or ROPN1B over-expressing tumor cells were generated as described under ‘generation and culture of cell lines and T cells’ (see above), and tumor cells were pre-treated 48 h with IFN-Y before co-culture with T cells. […] T cells that fulfilled these criteria (examples in FIG. 10A) were assessed for their sensitivity towards their cognate epitope. […] EC50 values were calculated using GraphPad Prism 5 software.

The target in the next assay is T1, HLA-A2 (Homo sapiens, UniProt P04439, D140Y/D185E/D98H/E176V/E277Q/G131W/G231S/I119V/I121R/I166T/I218V/L300P/L318F/N151K/N90K/P208A/P217A/Q86G/Q94H/R138H/R169H/T345S).
T1 construct: The HLA-A2 stabilization assay was performed using T2 cells; endogenous in cells; host or cells: T2 cells (LCLxT lymphoblastoid hybrid cell line 0.1743CEM.T2)
The assay can be described thus: HLA-A2 stabilization assay using T2 cells. It counts as binding. The note with it: Table 4 (Examples 1 and 2); EC50 of peptide titration on T2 cells; read-out: Affinity for HLA.A2.01.

Assay [3] relates to CD8+ T cells. The assay can be described thus: Enrichment of epitope-specific CD8 T cells from healthy donors, epitope-specific IFNg production (ELISA). It counts as cell-based, human. The note with it: Table 4; positive co-cultures / co-cultures tested. As for the experimental part:
as §1
Enriched T cells were tested for ROPN1 and/or ROPN1B epitope-specific IFNY production. To this end, T2 cells (4×10^6/mL) were loaded with peptide (20 ng/mL) for 30 min. T cells (2×10^5) were cultured in a 1:1 ratio with T2 cells in a round bottom 96-wells plate, and the next day supernatant was collected and IFN-γ production was measured with an Enzyme-linked immunosorbent assay (ELISA, Invitrogen) according to manufacturer's protocol (FIG. 4B). T2 cells without peptide were included as a negative control; and staphylococcal enterotoxin B (0.1 μg, Sigma) was used as a positive control.
Enrichment of epitope-specific T cells was performed by co-culturing naïve T cells with CD11c-positive cells that were loaded with peptide. PBMCs were passed through a cell strainer (70 μm) and used for the isolation of naïve T cells and CD11c cells. To isolate CD11c-positive cells (typically dendritic cells, DC), PBMCs were stained for 10 mM at 4° C. with Fc block (10 μL/10^7 PBMCs, BD Pharmingen, Vianen, the Netherlands), after which cells were stained with CD11c-PE antibody (10 μL/10^7 PBMCs, BD Pharmingen) for 30 mM at 4° C., washed, and incubated with PE beads (10 μL/10^7 PBMCs, Miltenyi Biotech, Bergisch Gladbach, Germany) for another […] at 4° C. After washing, cells were dissolved in magnetic-activated cell sorting (MACS) buffer and passed through a MACS LS column (Miltenyi Biotec) to positively select CD11c cells. After selection, CD11c cells were irradiated with 30 Gy, and cultured overnight in a 24-wells plate (1×10^6/mL) in RPMI medium supplemented with 1% human serum (Sanquin), 1% antibiotics, […] L-glutamine, a DC maturation cocktail (a mixture of GM-CSF (10 ng/mL, ImmunoTools, Germany), IL-4 (10 ng/mL, ImmunoTools), LPS (100 ng/mL, Invitrogen, Goteborg, Sweden) and IFNY (10 ng/mL, Preprotech, London, United Kingdom)), as well as peptide (10 pg/mL). Naïve T cells were isolated with use of the Naïve T Cell isolation kit (Miltenyi Biotec) according to the manufacturer's protocol, and suspended in RPMI medium supplemented with 5% human serum (Sanquin), 1% antibiotics, […] L-glutamine and IL-7 (5 ng/mL, BD Pharmingen). The run-through of the naïve T cell selection was frozen down and used for re-stimulation of epitope-specific T cells. […]
On the technique in general: ELISA stands for enzyme-linked immunosorbent assay.

Assay [4] concerns the target T2, HLA-A2 (HLA-A2:01) on T2 cells (human).
T2 construct: detected with anti-HLA-A2 mAb BB7.2
The experiment in a line: HLA-A2 stabilization assay on T2 cells, peptide titration, flow cytometry with anti-HLA-A2 BB7.2; column Affinity for HLA A2:01 (M).

In assay [5] the target is T2, HLA-A2 (HLA-A2:01) on T2 cells. The assay can be described thus: HLA-A2 stabilization assay on T2 cells, peptide titration (Example 2, repeated); column Affinity for HLA.A2.01 (M).
For assay [6] the target is unchanged. The experiment in a line: HLA-A2 stabilization assay on T2 cells (anti-HLA-A2-PE, flow cytometry), single peptide concentration 25 ug/mL [panel E].
Assay [7] shares this target. The assay can be described thus: HLA-A2 stabilization assay on T2 cells (anti-HLA-A2-PE, flow cytometry), single peptide concentration [panel D].
Assay [8] has the same target. The assay can be described thus: HLA-A2 stabilization assay on T2 cells, peptide titration; amplitude = highest data point corrected for baseline [panel E].
For assay [9] the target is unchanged. The experiment in a line: HLA-A2 stabilization assay on T2 cells, peptide titration; amplitude relative to that of reference peptide YLE [panel D].
For assay [10] the target is unchanged. The experiment in a line: HLA-A2 stabilization assay on T2 cells, peptide titration; EC50 calculated with GraphPad [panel D].

Peptide text beside a SMILES is read from it.

Regarding `CC[C@H](C)[C@H](NC(=O)[C@H](CC(C)C)NC(=O)CNC(=O)[C@H](CC(=O)O)NC(=O)[C@@H]1CCCN1C(=O)CNC(=O)[C@@H](NC(=O)[C@@H](NC(=O)[C@@H](N)CCC(=O)O)C(C)C)[C@@H](C)CC)C(=O)N[C@H](C(=O)N[C@H](C(=O)O)C(C)C)[C@@H](C)O` (H-EVIGPDGLITV-OH; N-terminus and C-terminus assumed), in the assay on CD8+ T cells [1], the “pMHC staining % pMHC+ CD8+ in CD3+” value is reported as 8.25%. Further, in assay [2], the “T cell responses observed (IFNg) against endogenously presented epitope” value was 1/7 responses. Moreover, the EC50 at HLA-A2 was 0.655 µM. Moreover, in the assay on CD8+ T cells [3], the “T cell responses observed (IFNg) against epitope” value is recorded as 2/2 co-cultures.

B1: Epitope 1 (MLN) peptide MLNYIEQEV of ROPN1B (peptide)
peptide: MLNYIEQEV
notes: Synthetic peptide (ThinkPeptides/ProImmune)
For the molecule B1, the EC50 came to 6.56 µM in [4] and 4.82 µM in assay [5]. Also, the Minimum stability came out at 1.13 fold change over baseline in assay [6] and 1.4 fold change over baseline in assay [7]. Besides, the Amplitude is 3450 geometric mean normalized to baseline in [8] and 0.935 relative to YLE in assay [9].
Consider GVTITKTLK (ROPN1A and ROPN1B, eluted), for which the EC50 in assay [10] was 0.57 µM. Also, in assay [7], the Minimum stability was determined as 1.18 fold change over baseline. Further, the Amplitude in assay [9] is 0.489 relative to YLE.
With ALACSALGV (Synthetic peptide) [Epitope 7 peptide ALACSALGV of ROPN1 and ROPN1B], the figures for the EC50 in assay [4] and in [5] were 3.16 µM and 2.84 µM, respectively. The results for the Minimum stability in assay [6] and in [7] were 1.37 fold change over baseline and 1.26 fold change over baseline, respectively. The Amplitude in assay [8] is 2180 geometric mean normalized to baseline; in [9] it was 0.852 relative to YLE.
Consider AQMWKVVNL (Synthetic peptide) [Epitope 8 peptide AQMWKVVNL of ROPN1 and ROPN1B], for which the EC50 in [4] was found to be 11.4 µM; in [5], 10.5 µM. In addition, the figures for the Minimum stability in [6] and in assay [7] were 1.29 fold change over baseline and 1.4 fold change over baseline, respectively. Also, the results for the Amplitude in assay [8] and in assay [9] were 3480 geometric mean normalized to baseline and 0.924 relative to YLE, respectively.

B2: Epitope 5 peptide LIIRAEELAQM of ROPN1 and ROPN1B (peptide)
peptide: LIIRAEELAQM
notes: 11-mer found by immunopeptidomics; tested as synthetic peptide
As to B2, the EC50 in assay [4] and in assay [5] was 6.99 µM each time. Also, the Minimum stability was 1.27 fold change over baseline in assay [6] and 1.38 fold change over baseline in assay [7]. Besides, the Amplitude in assay [8] was 3170 geometric mean normalized to baseline; in assay [9], 0.918 relative to YLE.
As for KMLKEFAKA (Synthetic peptide) [Epitope 9 peptide KMLKEFAKA of ROPN1 and ROPN1B], the EC50 in [4] was 91.2 µM; in assay [5] it was 38.2 µM. Moreover, the Minimum stability in assay [6] worked out at 1.19 fold change over baseline; in assay [7] it was 1.2 fold change over baseline. In addition, the Amplitude in assay [8] is 2660 geometric mean normalized to baseline; in assay [9], 0.842 relative to YLE.
Take FQFLYTYIA (Synthetic peptide) [Epitope 6 peptide FQFLYTYIA of ROPN1 and ROPN1B]: the EC50 in [4] came out at 3.28 µM; in assay [5], 3.43 µM. The values for the Minimum stability in assay [6] and in [7] were 1.32 fold change over baseline and 1.14 fold change over baseline, respectively. Also, the Amplitude in [8] was 2380 geometric mean normalized to baseline; in assay [9], 0.739 relative to YLE.
Regarding LPRIPFSTF (ROPN1B, eluted), the EC50 in assay [10] was 0.0664 µM. The Minimum stability in [7] was determined as 1.14 fold change over baseline. Also, in assay [9], the Amplitude was 0.38 relative to YLE.
Consider KTLKIVCEV (Synthetic peptide) [Epitope 3 peptide KTLKIVCEV of ROPN1 and ROPN1B], for which the EC50 in [4] came out at 4.35 µM; in assay [5], 4.4 µM. The values for the Minimum stability in assay [6] and in assay [7] were 1.18 fold change over baseline and 1.26 fold change over baseline, respectively. The Amplitude was 2620 geometric mean normalized to baseline in assay [8] and 0.844 relative to YLE in assay [9].
Consider FLYTYIAKV (Synthetic peptide) [Epitope 4 (FLY-A) peptide FLYTYIAKV of ROPN1], for which the EC50 in [4] was 10.9 µM; in assay [5], 8.11 µM. The Minimum stability in assay [6] turned out to be 1.5 fold change over baseline; in assay [7] it was 1.63 fold change over baseline. The Amplitude in assay [8] is 2710 geometric mean normalized to baseline; in assay [9], 0.888 relative to YLE.
